Laboratory results reported in US20230399374A1, “Compounds, Compositions and Methods of Use to Treat Bone Fractures” (PURDUE RESEARCH FOUNDATION, priority 2020, published 2023).
Non-standard residues stand in square brackets, D forms with d. Residues, ends and D or L forms follow the SMILES beside them. No end group written: not given here. *: point of attachment. X2 = CC1(C)C(/C=C/C2=C(Oc3ccc(CCNC(=O)CCN4C(=O)CC(*)C4=O)cc3)C(=C/C=C3/N(CCCCS(=O)(=O)O)c4ccc(S(=O)(=O)O)cc4C3(C)C)/CCC2)=[N+](CCCCS(=O)(=O)O)c2ccc(S(=O)(=O)O)cc21; Fmoc = O=C(OCC1c2ccccc2-c2ccccc21)*

What was measured:
[1] = Half-life of S0456 near-IR dye conjugates at the fracture site; settings: female, ND-4 Swiss-Webster, mouse, in vivo, sc, 250 nmol/mouse
Protocol: (§1) All animal experiments were performed in accordance with protocols approved by Purdue University's Institutional Animal Care and Use Committee (IACUC).

[2] = mouse, in vivo, iv
Protocol: as §1

midshaft femur fractures = settings: mouse, in vivo
Protocol: To explore the impact of peptide branching on payload targeting, the abilities of acidic oligo-aspartic acids constructed of either two chains of 5 aspartic acids each or a single linear chain of 10 aspartic acids to deliver the CK2.3 payload to fracture surfaces were compared. […] The biodistributions were determined 18 hours post-injection into ND-4 Swiss-Webster mice (n=5) bearing midshaft femur fractures 10 days post-fracture.
The biodistributions were determined 18 hours post-injection into ND-4 Swiss-Webster mice (n=5) bearing midshaft femur fractures 10 days post-fracture.
The biodistributions were determined 18 hours post-injection (e.g., into ND-4 Swiss-Webster mice (n=5) bearing midshaft femur fractures 10 days post-fracture).
In some instances, the biodistribution is determined 18 hours post-injection (e.g., into ND-4 Swiss-Webster mice (n=5) bearing midshaft femur fractures 10 days post-fracture).
The biodistribution was determined 18 hours post-injection (e.g., into ND-4 Swiss-Webster mice (n=5) bearing midshaft femur fractures 10 days post-fracture). In some instances, the accumulation of the labeled compounds in the fractured femurs are reported as a percent of the injected dose per gram of tissue. […]

[3] = Serum calcium after 21 days of treatment (QuantiChrom Calcium Assay); type: in vivo, Swiss Webster mouse; settings: FIG. 25
Text: In some instances, using a targeted anabolic described herein (e.g., as opposed to free anabolics) is beneficial for treating bone fracture, such as, for example, because targeted anabolics hereof can limit the effects on the regulation of calcium metabolism that occurs in the kidneys for parathyroid hormones.
For quantitative determination of calcium ion (Ca^2+) and evaluation of drug effects on calcium metabolism, the QuantiChrom Calcium Assay Kit from BioAssay Systems (Hayward, CA) was used. A phenolsulfonphthalein dye in the kit specifically forms a very stable, blue-colored complex with free calcium. The intensity of the color, measured at 612 nm, is directly proportional to the calcium concentration in the sample. […] The serum was removed from the cell pellet and stored at −80° C. until calcium concentration quantification. […] After that, the samples were incubated for 3 minute at room temperature and optical density at 570-650 nm (peak absorbance at 612 nm) was read to obtain the ODSAMPLE. […] The plate was tapped to mix and optical density was measured at the same wavelength to get ODSTANDARD. […] Optical density was read at the same wavelength measurement to get ODBLANK. […]
where ODSAMPLE, ODBLANK, and ODSTANDARD are the OD readings of the Sample, Sample Blank, and the Sample plus Standard respectively; 10 is the concentration of the standard in mg/dL, and n is the sample dilution factor. […]

CC1(C)C(/C=C/C2=C(Oc3ccc(CCNC(=O)CCN4C(=O)CC(SC[C@H](NC(=O)OCC5c6ccccc6-c6ccccc65)C(=O)N[C@H](CC(=O)O)C(=O)N[C@H](CC(=O)O)C(=O)N[C@H](CC(=O)O)C(=O)N[C@H](CC(=O)O)C(=O)N[C@H](CC(=O)O)C(=O)N[C@H](CC(=O)O)C(=O)N[C@H](CC(=O)O)C(=O)N[C@H](CC(=O)O)C(=O)N[C@H](CC(=O)O)C(=O)N[C@H](CC(=O)O)C(=O)O)C4=O)cc3)C(=C/C=C3/N(CCCCS(=O)(=O)O)c4ccc(S(=O)(=O)O)cc4C3(C)C)/CCC2)=[N+](CCCCS(=O)(=O)O)c2ccc(S(=O)(=O)O)cc21 (stereo partly shown) [(D)Asp10] (Fmoc-C(X2)[dD][dD][dD][dD][dD][dD][dD][dD][dD][dD]-OH)
half-life [1]: > 4.17 days

N[C@@H](Cc1ccc(O)c(I)c1)C(=O)N[C@@H](CSC1CC(=O)N(CCC(=O)N[C@@H](CC(=O)O)C(=O)N[C@@H](CC(=O)O)C(=O)N[C@@H](CC(=O)O)C(=O)N[C@@H](CC(=O)O)C(=O)N[C@@H](CC(=O)O)C(=O)N[C@@H](CC(=O)O)C(=O)N[C@@H](CC(=O)O)C(=O)N[C@@H](CC(=O)O)C(=O)O)C1=O)C(=O)O (stereo partly shown) [octa-aspartic acid] (HELM PEPTIDE1{[N[C@@H](Cc1ccc(O)c(I)c1)C(=O)N[C@@H](CSC1CC(=O)N(CCC(=O)[*:2])C1=O)C(=O)O].D.D.D.D.D.D.D.D}$$$$V2.0)
selectivity ratio [2]: 11.2

RQIKIWFQNRRMKWKKIPVGESLKDLIDQC [CK2.3]
fracture targetability of payloads coupled to (L)Asp10 (in words) (midshaft femur fractures): displayed no reduction in fracture accumulation

SVSEIQLMHNLGKHLNSMERVEWLRKKLQDVHNFVALGAPLAPRDA[dE][dE][dE][dE][dE][dE][dE][dE][dE][dE] [SEQ ID NO: 13]
blood (serum) calcium [3]: did not increase the blood calcium significantly in comparison to the free form
